Reference: patent publication US20230190718A1, “METHODS FOR THE TREATMENT OF PANCREATITIS AND PREVENTION OF PANCREATIC CANCER” (BOARD OF REGENTS, THE UNIVERSITY OF TEXAS SYSTEM, priority 2020, published 2023)
“Also recorded” adds a separate entry of the source.

Columns and labels:
[1] = system: Caerulein-induced pancreatitis; assay: Pretreatment with ADM inducers in caerulein-induced pancreatitis: histology (ADM) and CD45 infiltration; type: in vivo, mice; settings: EGF 1.2 mg/kg i.p., two injections a day for four days, before caerulein; 24 hrs after caerulein; compared with sulindac
From the text: Epigenetic modifiers: Recently, the emerging role of epigenetic regulation has led to the development of a wide spectrum of small molecules targeting selectively bromodomain and extra-terminal (BET) protein family which are currently under evaluation in preclinical model of hematological malignancies and solid tumors (Asangani et al., 2014; Delmore et al., 2011; Filippakopoulos et al., 2010). Leveraging the persistent chromatin modifications induced by an acute inflammatory event, the possibility of limiting the detrimental effects of repeated pancreatitis was tested through the administration of INCB054329, a BRD4 inhibitor currently in phase I-II clinical studies in patients with advanced malignancies (Falchook et al., 2019).
(§1) Induction of acute pancreatitis. […] Control mice received injections of pyrogen-free PBS. Mice were examined daily for health conditions and sacrificed at the indicated time points by CO2 asphyxiation and cervical dislocation.
DAPI nuclear counterstaining was also performed.

[2] = system: repeated caerulein-induced pancreatitis in iKRAS animals; assay: Pharmacological modulation of ADM in iKRAS mice rechallenged with caerulein (repeated pancreatitis); type: in vivo
Method: To explore the hypothesis that ADM is a physiologic, fast and reversible adaptation mediated by epithelial memory that limits the detrimental effects of repeated pancreatitis, the effects of pharmacological modulation of ADM was evaluated in iKRAS animals subjected to repeated inflammation.
as §1
For ADM quantification two hematoxylin/eosin-stained 10×-magnification fields of whole-mount pancreata from two mice each experimental group were analyzed with ImageJ. ADM areas, expressed in pixels, were normalized to control (rechallenged) mice considered as reference.
Images, then, were analyzed with ImageJ and CC3 specific signal, expressed as area (pixels), was normalized to total pancreatic parenchyma using DAPI. From six to nine 4×-magnification fields of whole-mount pancreata from three mice each experimental group were analyzed.

[3] = EGF at pharmacological doses before induction of pancreatitis
[4] = iKRAS mice pretreated before and during CAE rechallenge, p<0.01

B1: EGF (protein, UniProt P01133 23-1207, looked up)
Pro-epidermal growth factor: PQHWSCPEGTLAGNGNSTCVGPAPFLIFSHGNSIFRIDTEGTNYEQLVVDAGVSVIMDFHYNEKRIYWVDLERQLLQRVFLNGSRQERVCNIEKNVSGMAINWINEEVIWSNQQEGIITVTDMKGNNSHILLSALKYPANVAVDPVERFIFWSSEVAGSLYRADLDGVGVKALLETSEKITAVSLDVLDKRLFWIQYNREGSNSLICSCDYDGGSVHISKHPTQHNLFAMSLFGDRIFYSTWKMKTIWIANKHTGKDMVRINLHSSFVPLGELKVVHPLAQPKAEDDTWEPEQKLCKLRKGNCSSTVCGQDLQSHLCMCAEGYALSRDRKYCEDVNECAFWNHGCTLGCKNTPGSYYCTCPVGFVLLPDGKRCHQLVSCPRNVSECSHDCVLTSEGPLCFCPEGSVLERDGKTCSGCSSPDNGGCSQLCVPLSPVSWECDCFPGYDLQLDEKSCAASGPQPFLLFANSQDIRHMHFDGTDYGTLLSQQMGMVYALDHDPVENKIYFAHTALKWIERANMDGSQRERLIEEGVDVPEGLAVDWIGRRFYWTDRGKSLIGRSDLNGKRSKIITKENISQPRGIAVHPMAKRLFWTDTGINPRIESSSLQGLGRLVIASSDLIWPSGITIDFLTDKLYWCDAKQSVIEMANLDGSKRRRLTQNDVGHPFAVAVFEDYVWFSDWAMPSVMRVNKRTGKDRVRLQGSMLKPSSLVVVHPLAKPGADPCLYQNGGCEHICKKRLGTAWCSCREGFMKASDGKTCLALDGHQLLAGGEVDLKNQVTPLDILSKTRVSEDNITESQHMLVAEIMVSDQDDCAPVGCSMYARCISEGEDATCQCLKGFAGDGKLCSDIDECEMGVPVCPPASSKCINTEGGYVCRCSEGYQGDGIHCLDIDECQLGEHSCGENASCTNTEGGYTCMCAGRLSEPGLICPDSTPPPHLREDDHHYSVRNSDSECPLSHDGYCLHDGVCMYIEALDKYACNCVVGYIGERCQYRDLKWWELRHAGHGQQQKVIVVAVCVVVLVMLLLLSLWGAHYYRTQKLLSKNPKNPYEESSRDVRSRRPADTEDGMSSCPQPWFVVIKEHQDLKNGGQPVAGEDGQAADGSMQPTSWRQEPQLCGMGTEQGCWIPVSSDKGSCPQVMERSFHMPSYGTQTLEGGVEKPHSLLSANPLWQQRALDPPHQMELTQ
modifications: Pro-epidermal growth factor
notes: growth factor used as MAPK agonist / ADM inducer
infiltration of CD45 cells (marker of inflammation) [1]: almost completely suppressed; also recorded: significant decrease of CD45 infiltration | ADM formation [2, 3]: largely promoted ADM formation | tissue damage, evaluated as number of cells positive for cleaved caspase 3 [2, 3]: strong reduction of tissue damage | decreased tissue damage as indicated by CC3 immunostaining [2, 4]: ~8 fold | increase of ADM formation (relative area) with respect to control mice rechallenged with CAE alone [2, 4]: ~3 fold
